According to patent US10047345B2, “Culturing of mesenchymal stem cells with FGF4 and nicotinamide” (Gamida-Cell Ltd., priority 2012, dated 2018):
“Also recorded” adds a separate entry of the source.

Columns and labels:
MSCs = details: cited from earlier work
mesenchymal stem cells [1] = experiment: Percent of MSC (CD105+CD45-) by FACS; type: cell-based, human; details: NAM 5 mM, FGF4 50 ng/ml, PDGF-BB 50 ng/ml
Procedure: At different time points the cells were detached with 0.25% trypsin-EDTA. The cells were washed with a PBS solution containing 1% BSA, and stained (at 4° C. for 30 min) with either fluorescein isothiocyanate (FITC) or phycoerythrin (PE)-conjugated antibodies: 105 PE, 105 FITC (Serotec, Raleigh, N.C.), 45 FITC, 14 FITC, HLA-DR FITC, 106 PE, 31 PE (BD, Franklin Lakes N.J.), 34 PE (Dako, Glostrup, Denmark), 73 PE, HLA class1 PE, 49b PE (Pharmingen, San Diego, Calif.), 29 PE, 44 PE, 54 FITC, 59 PE, 90 PE (BioLegend, San Diego, Calif.). […]
The cells were then washed in the above buffer and analyzed using a FACScalibur® flow cytometer (Becton Dickinson, Franklin Lakes N.J.). […] Emission of 10000 cells was measured using logarithmic amplification, and analyzed using the CellQuest software (Becton Dickinson). Cells stained with FITC- and PE-conjugated isotype control antibodies were used to determine background fluorescence.
(§1) Mesenchymal stem cells were selected and cultured in the presence of particular growth factors (basic fibroblast growth factor—bFGF, heparin binding epidermal growth factor—HB-EGF, fibroblast growth factor 4—FGF-4 and platelet derived growth factor, homodimer, subunit B, PDGF-BB) in the presence and absence of nicotinamide for three or four passages and the number and size of the cells was calculated.

mesenchymal stem cells [2] = experiment: Cell size of cultured MSCs (Cedex cell counter); type: cell-based, human; details: between days 10-32 of culture
Procedure: Cell size was measured using Cedex Automated Cell Counter (Innovatis). The cells were diluted 1:2 in Trypan Blue (Sigma) and cell size was measured automatically under microscope.
as §1

[3] = test system: umbilical cord-derived CD133+ hematopoietic stem cells; experiment: Differentiation and proliferation of ex-vivo cultured hematopoietic stem cells (FACS surface markers); type: cell-based
Procedure: Umbilical cord-derived hematopoietic stem cells were isolated using CD133 microbeads and CliniMACS® separator (Miltenyi, Inc. Auburn, Calif.), and cultured for 3 weeks in MEMα supplemented with 50 ng/ml TPO, IL6, SCF, Flt3, fetal bovine serum, ±2.5 or 5 mM nicotinamide, and/or 10, 50 or 200 ng/ml FGF4. After 3 weeks in culture the cells were stained for surface markers (CD38, CD133, CD33, CD19) and the cell populations determined by FACS analysis (see below). Results are expressed as percentage of total population assayed.
At different time points the cells were detached with 0.25% trypsin-EDTA. The cells were washed with a PBS solution containing 1% BSA, and stained (at 4° C. for 30 min) with either fluorescein isothiocyanate (FITC) or phycoerythrin (PE)-conjugated antibodies: 105 PE, 105 FITC (Serotec, Raleigh, N.C.), 45 FITC, 14 FITC, HLA-DR FITC, 106 PE, 31 PE (BD, Franklin Lakes N.J.), 34 PE (Dako, Glostrup, Denmark), 73 PE, HLA class1 PE, 49b PE (Pharmingen, San Diego, Calif.), 29 PE, 44 PE, 54 FITC, 59 PE, 90 PE (BioLegend, San Diego, Calif.). CD133—(AC141) PE (Miltenyi, Auburn, Calif.), CD38 FITC (Dako, Glostrup, Denmark), CD19 FITC (BD Biosciences, Franklin Lakes N.J.), CD33 FITC (BD Bioscience, Franklin Lakes N.J.).
The cells were then washed in the above buffer and analyzed using a FACScalibur® flow cytometer (Becton Dickinson, Franklin Lakes N.J.). The cells were passed at a rate of up to 1000 cells/second, using a 488 nm argon laser beam as the light source for excitation. Emission of 10000 cells was measured using logarithmic amplification, and analyzed using the CellQuest software (Becton Dickinson). Cells stained with FITC- and PE-conjugated isotype control antibodies were used to determine background fluorescence.
Umbilical cord-derived CD133+ hematopoietic stem cells were isolated and cultured for 3 weeks in medium supplemented with early-acting growth factors and fetal bovine serum, nicotinamide and/or FGF4. After 3 weeks in culture the cells were stained for surface markers (CD38, CD133, CD19) and the cell populations determined by FACS analysis. Cell proliferation was assessed by counting total cells at three weeks.

For EGF: Epidermal growth factor, the “increase in the number of colony-forming units of MSCs” value (MSCs; Tamama et al. 2010) is given as 25%.

B1: BMP-3: member of the transforming growth factor beta family (protein, UniProt P12645 363-472, looked up)
Bone morphogenetic protein 3: QWIEPRNCARRYLKVDFADIGWSEWIISPKSFDAYYCSGACQFPMPKSLKPSNHATIQSIVRAVGVVPGIPEPCCVPEKMSSLSILFFDENKNVVLKVYPNMTVESCACR
In the case of B1, the “increase of MSC proliferation” value (MSCs; Stewart et al. 2010) is given as “threefold”.

B2: PDGF-BB: platelet derived growth factor, homodimer, subunit B (protein, UniProt P01127 82-190, looked up)
Platelet-derived growth …: SLGSLTIAEPAMIAECKTRTEVFEISRRLIDRTNANFLVWPPCVEVQRCSGCCNNRNVQCRPTQVQLRPVQVRKIEIVRKKPIFKKATVTLEDHLACKCETVAAARPVT
With B2 the “fraction of MSC (CD105+CD45-) versus cells other than MSCs in the culture” value (mesenchymal stem cells [1]) was “contaminated with a higher fraction of cells other than MSCs”.

B3: FGF4: Fibroblast growth factor 4, the FGF4 gene product, a 176 AA long protein (protein, UniProt P08620 31-206, looked up)
Fibroblast growth factor 4: APTAPNGTLEAELERRWESLVALSLARLPVAAQPKEAAVQSGAGDYLLGIKRLRRLYCNVGIGFHLQALPDGRIGGAHADTRDSLLELSPVERGVVSIFGVASRFFVAMSSKGKLYGSPFFTDECTFKEILLPNNYNAYESYKYPGMFIALSKNGKTKKGNRVSPTMKVTHFLPRL
For B3, the “cell diameter of cultured MSCs” value (mesenchymal stem cells [2]) was “greater than 20 μm”, the “degree of differentiation of hematopoietic progenitor cells (CD38 and CD133-expressing fraction)” value ([3]; 3 weeks culture, nicotinamide 2.5 or 5 mM, FGF4 10 to 200 ng/ml) was “without any effect on the degree of differentiation; also recorded: neither improved nor reduced” and the “total cell proliferation in hematopoietic cultures” value ([3]; 3 weeks, FGF4 with or without nicotinamide, results not shown) was “without any discernible effect”. The “fraction of undifferentiated early progenitors (CD38-CD133+)” value ([3]; 3 weeks, FIG. 35) was “absence of any significant effect”, the “differentiation (CD38+ cells)” value ([3]; 3 weeks, FIG. 36) was “absence of any significant effect” and the “myeloid lineage differentiation (CD33+ cells)” value ([3]; 3 weeks, FIG. 37) was “moderate enhancement”. The “lymphoid lineage differentiation (CD19+ cells)” value ([3]; 3 weeks, FIG. 38) was “absence of any significant effect” and the “abundance of committed myeloid or lymphoid cells (CD33, CD19)” value ([3]; three week cultures) was “without any effect”.
